What was measured:
human CXCR4 [1] = target: T1, human CXCR4 (human, UniProt P61073 1-352); assay: cell-based or functional assay
human CXCR4 [2] = target: T1, human CXCR4; assay: flow cytometry, IgG 10 µg/mL, CXCR4-expressing Ramos (RA1) cells
Procedure: Binding of test IgGs to CXCR4-expressing human lymphoma cells (Ramos; RA1, ATCC® CRL-1596™) was measured by fluorescent flow cytometry-based assay. Tumor cell staining was conducted as follows: human Fcγ receptors of RA1 cells were saturated by incubation at 4° C. for 30 minutes in PBS containing 2% human serum and 0.5 mM EDTA. Cells were then incubated at 4° C. for one hour with test IgGs or a human isotypic IgG1 kappa control (Coger Sarl, Paris, France) (both antibody types at 10 μg/mL). The cells were washed with PBS and further incubated for one hour at 4° C. with a goat F(ab′)2 fragment anti-human IgG (H+L)-PE (Beckman Coulter). The cells were washed twice with PBS and fixed with 0.5% formaldehyde in PBS for analysis by flow cytometry. The data were acquired using an eleven-color flow cytometer (LSRII, BD Biosciences), and the analyses were performed with the FlowJo flow cytometry analysis software (Tree Star Inc., Ashland, Oreg.). The living cells were selected using the side scatter (SSC) and the forward scatter (FSC); 10,000 events were acquired for each analysis. MFI values were recorded using the PE channel.

human CXCR4 [3] = target: T1, human CXCR4; assay: flow cytometry on Cf2-Th cells transfected with human CXCR4, IgG1 format
Procedure: A typical protocol for the fluorescent flow cytometry-based assay was as follows. Ten microliter of a purified test IgG solution or buffer as a control were added to 10 microliter of a suspension containing approximately 30,000 Cf2-Th cells transfected to express human CXCR4. After incubation on ice for 40 min, cells were washed with FACS buffer (phosphate-buffered saline (PBS), pH7.4; 2% fetal calf serum, 0.1% sodium azide) to remove unbound antibodies. Ten microliter of a solution of phycoerythrin (PE)-conjugated mouse anti-human Fc monoclonal antibody (1/20 dilution; catalog number 12-4998-82, eBioscience Inc., San Diego, Calif.) were then added to the cells, and, after a 30-min incubation on ice, cells were washed twice and then formalin-fixed (FIX buffer: PBS, pH7.4; 0.5% formaldehyde). Fixed samples were analysed by fluorescent flow cytometry using a Guava-PCA96 instrument (EMD Millipore Chemicals, Merck KGaA, Darmstadt, Germany).

human CXCR4 [4] = target: T1, human CXCR4; assay: cell-based or functional assay; remark: listed apart in the source

T1 sequence (P61073 whole entry): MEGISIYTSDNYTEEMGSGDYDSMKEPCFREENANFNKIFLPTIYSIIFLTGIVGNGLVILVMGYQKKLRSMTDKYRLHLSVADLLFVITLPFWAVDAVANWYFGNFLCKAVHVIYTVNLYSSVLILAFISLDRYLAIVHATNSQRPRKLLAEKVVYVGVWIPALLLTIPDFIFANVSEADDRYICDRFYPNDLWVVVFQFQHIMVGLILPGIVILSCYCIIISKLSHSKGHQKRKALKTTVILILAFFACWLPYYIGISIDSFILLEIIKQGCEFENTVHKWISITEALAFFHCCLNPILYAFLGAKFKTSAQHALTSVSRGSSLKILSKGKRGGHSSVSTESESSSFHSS

% Inhibition of SDF-1alpha-induced chemotaxis of U937 cells (IgG at 100 nM) (human CXCR4 [1]): 77%
MFI (human CXCR4 [2]): 488
EC50 (human CXCR4 [3]): < 10 nM
IC50 (nM), inhibition of SDF-1alpha-induced calcium flux (human CXCR4 [4]): 3.8 nM
B1: V62.1-R108H-m43-m38 (antibody, human IgG1, V domains shown)
VH: EVQLLESGGGLVQPGGSLRLSCAASGFTFSSYAMSWVRQAPGKGLEWVSAISGSGGGSTRYADSVKGRFTISRDNSKNTLYLQMNSLRAEDTAVYYCARQGKTRVYGYHWHGYGSTHALDYWGQGTLVTVSS
VL: EIVLTQSPGTLSLSPGERATLSCRASQSVSSSYLAWYQQKPGQAPRLLIYGASSRATGIPDRFSGSGSGTDFTLTISRLEPEDFAVYYCQQWSSDSVTFGQGTKVEIKR
notes: Tested as an IgG (human IgG1 format); also called V62.1-H-m43-m38; IgG1 62.1-R108H-m43-m38

From patent US20190389958A1 (MSM PROTEIN TECHNOLOGIES, published 2019)
